This is an account of results in patent US20210162009A1 (MEDICAL COLLEGE OF WISCONSIN, published 2021).

The assay addresses T1, wild-type CXCL12 (Homo sapiens (Human), UniProt P48061 22-89).
T1 construct: also called CXCL12WT; WT
Briefly: 125I-CXCL12 displacement from CXCR4. As for the experimental part: A) The affinity of CXCL12 variants for CXCR4 was determined by ¹²⁵I-CXCL12 displacement. […] C) Intracellular calcium mobilization of cells stimulated by 10 nM CXCL12 variants was measured in the presence or absence of the Gαi inhibitor, pertussis toxin (PTX). From Drury, PNAS, 2011.

One may read the Kd as the concentration at which binding is half-saturated. A lower Kd goes with tighter binding.

T1 sequence (P48061 22-89 limits assumed): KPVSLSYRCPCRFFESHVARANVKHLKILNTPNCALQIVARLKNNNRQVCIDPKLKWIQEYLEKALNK

B1: CXC chemokine receptor 4 (CXCR4) (receptor, UniProt P61073 1-352, looked up)
chain: MEGISIYTSDNYTEEMGSGDYDSMKEPCFREENANFNKIFLPTIYSIIFLTGIVGNGLVILVMGYQKKLRSMTDKYRLHLSVADLLFVITLPFWAVDAVANWYFGNFLCKAVHVIYTVNLYSSVLILAFISLDRYLAIVHATNSQRPRKLLAEKVVYVGVWIPALLLTIPDFIFANVSEADDRYICDRFYPNDLWVVVFQFQHIMVGLILPGIVILSCYCIIISKLSHSKGHQKRKALKTTVILILAFFACWLPYYIGISIDSFILLEIIKQGCEFENTVHKWISITEALAFFHCCLNPILYAFLGAKFKTSAQHALTSVSRGSSLKILSKGKRGGHSSVSTESESSSFHSS
On to B1, for which binding was put at a Kd of 25 nM.
